# Results taken from US20210284711A1 (KAHR MEDICAL, published 2021).
# B1: N-terminal His-tagged DSP105_V17 (PD1-4-1BBL variant fusion protein) (other)
# chain: HHHHHHDSPDRPWNPPTFSPALLVVTEGDNATFTCSFSNTSESFVLNWYRMSPSNQTDKLAAFPEDRSQPGQDSRFRVTQLPNGRDFHMSVVRARRNDSGTYLCGAISLAPKAQIKESLRAELRVTERRAEVPTAHPSPSPRPAGQGSAASPRLREGPELSPDDPAGLLDLRQGMFAQLVAQNVLLIDGPLSWYSDPGLAGVSLTGGLSYKEDTKELVVAKAGVYYVFFQLELRRVVAGEGSGSVSLALHLQPLRSAAGAAALALTVDLPPASSEARNSAFGFQGRLLHLSAGQRLGVHLHTEARARHAWQLTQGATVLGLFRVTPEIPAGLPSPRSE
# notes: also called N-terminal His-tagged DSP105_var17
# Target: T1, human PDL1 (overexpressed on DLD1-PDL1 cells) (human, UniProt Q9NZQ7 19-290)
# T1 construct: whole, on cells; also called B7H1; CD274
# Test: flow cytometry on DLD1-PDL1 cells, GMFI plotted against DSP105 conc. [ug/ml] (two-fold steps)
# Source text: Following, GMFI values were used to create a binding curve graph with a GraphPad Prism software (FIG. 10C). Taken together, both sides of the His-tagged DSP105_V17 (SEQ ID NO: 97), fusion protein, bind their relevant counterparts overexpressed on the surface of cells.
# T1 sequence (Q9NZQ7 19-290): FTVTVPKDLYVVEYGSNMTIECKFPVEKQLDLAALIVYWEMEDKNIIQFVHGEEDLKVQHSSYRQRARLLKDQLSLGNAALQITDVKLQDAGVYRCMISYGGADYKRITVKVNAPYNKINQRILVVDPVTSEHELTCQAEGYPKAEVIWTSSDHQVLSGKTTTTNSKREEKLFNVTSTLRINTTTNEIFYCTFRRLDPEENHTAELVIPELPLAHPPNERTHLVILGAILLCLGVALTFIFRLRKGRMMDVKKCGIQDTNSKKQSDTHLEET
binder,measurement,value
B1,EC50 (read off the curve),~0.9 µg/mL
